According to the supplement of paper PMC9112550, “Optimization of the antimicrobial peptide Bac7 by deep mutational scanning” (BMC Biology, 2022):

Tested on: Escherichia coli TOP10
Test: shrunken log2 fold change of peptide-encoding DNA abundance (4.5 h post-induction vs induction); higher = less antimicrobial activity (less host growth inhibition)
Details: time post-induction: 4.5 h; library: site-saturation at positions 5, 18, 19, 20
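Further: peptides expressed intracellularly from a pBAD plasmid library in pooled LB shake-flask culture, induced with 0.3% L-arabinose, DNA abundance read by NGS, three biological replicates, DESeq2 with apeglm shrinkage.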

| Sequence | shrunken log2 fold change |
| --- | --- |
| RRIRERPPRLPRPRPRPQHIPRP | -0.15 |
| RRIRERPPRLPRPRPRPILKPRP | -0.401 |
| RRIRKRPPRLPRPRPRPDFWPRP | 1.06 |
| RRIRERPPRLPRPRPRPMTPPRP | -0.0365 |
| RRIRVRPPRLPRPRPRPMPAPRP | 0.149 |
| RRIRRRPPRLPRPRPRPRTGPRP | 0.476 |
| RRIRQRPPRLPRPRPRPDNWPRP | -0.117 |
| RRIRDRPPRLPRPRPRPFWIPRP | -0.408 |
| RRIRPRPPRLPRPRPRPLVRPRP | 0.138 |
| RRIRLRPPRLPRPRPRPTHMPRP | 0.0883 |
| RRIRYRPPRLPRPRPRPNDPPRP | -0.549 |
| RRIRLRPPRLPRPRPRPNWIPRP | -0.583 |
| RRIRYRPPRLPRPRPRPTIWPRP | -0.196 |
| RRIRFRPPRLPRPRPRPEECPRP | -0.0175 |
| RRIRKRPPRLPRPRPRPWGIPRP | -0.168 |
| RRIRMRPPRLPRPRPRPLPEPRP | 1.24 |
| RRIRTRPPRLPRPRPRPWQPPRP | -0.0263 |
| RRIRWRPPRLPRPRPRPIWQPRP | -0.0567 |
| RRIRNRPPRLPRPRPRPAGEPRP | 0.507 |
| RRIRNRPPRLPRPRPRPGCSPRP | 0.121 |
| RRIRPRPPRLPRPRPRPFSWPRP | -0.0698 |
| RRIRFRPPRLPRPRPRPPLFPRP | 0.273 |
| RRIRCRPPRLPRPRPRPSYQPRP | -0.923 |
| RRIRMRPPRLPRPRPRPIYDPRP | -0.265 |
| RRIRVRPPRLPRPRPRPLQQPRP | -0.55 |

| Sequence | shrunken log2 fold change |
| --- | --- |
| RRIRARPPRLPRPRPRPYSSPRP | -0.28 |
| RRIRNRPPRLPRPRPRPMNTPRP | -0.421 |
| RRIRQRPPRLPRPRPRPENKPRP | -0.578 |
| RRIRSRPPRLPRPRPRPVFPPRP | -0.118 |
| RRIRHRPPRLPRPRPRPHKYPRP | -0.242 |
| RRIRARPPRLPRPRPRPLDQPRP | 1.44 |
| RRIRFRPPRLPRPRPRPWVTPRP | -0.0635 |
| RRIRQRPPRLPRPRPRPWPDPRP | -0.0854 |
| RRIRGRPPRLPRPRPRPQISPRP | 0.259 |
| RRIRFRPPRLPRPRPRPGPDPRP | 0.325 |
| RRIRKRPPRLPRPRPRPLQQPRP | 0.26 |
| RRIRFRPPRLPRPRPRPHPSPRP | -0.107 |
| RRIRSRPPRLPRPRPRPTMIPRP | -0.163 |
| RRIRHRPPRLPRPRPRPWKGPRP | -0.0165 |
| RRIRKRPPRLPRPRPRPFDLPRP | 0.0686 |
| RRIRTRPPRLPRPRPRPYKLPRP | -0.215 |
| RRIRFRPPRLPRPRPRPRMLPRP | 3.84e-05 |
| RRIRKRPPRLPRPRPRPLAQPRP | 0.801 |
| RRIRTRPPRLPRPRPRPEPYPRP | 0.0261 |
| RRIRPRPPRLPRPRPRPWNQPRP | -0.759 |
| RRIRVRPPRLPRPRPRPFFTPRP | 0.00087 |
| RRIRDRPPRLPRPRPRPYLIPRP | -0.387 |
| RRIRIRPPRLPRPRPRPGIHPRP | -0.31 |
| RRIRQRPPRLPRPRPRPVWWPRP | 0.015 |
| RRIRFRPPRLPRPRPRPHINPRP | -0.634 |

| Sequence | shrunken log2 fold change |
| --- | --- |
| RRIRPRPPRLPRPRPRPVPSPRP | 0.448 |
| RRIRYRPPRLPRPRPRPQHRPRP | -0.602 |
| RRIRCRPPRLPRPRPRPCLEPRP | -0.0191 |
| RRIRKRPPRLPRPRPRPVQMPRP | 0.241 |
| RRIRGRPPRLPRPRPRPAGPPRP | 0.644 |
| RRIRRRPPRLPRPRPRPEVQPRP | -0.00368 |
| RRIRWRPPRLPRPRPRPYFPPRP | -0.282 |
| RRIRVRPPRLPRPRPRPKNLPRP | 0.0256 |
| RRIRARPPRLPRPRPRPSRFPRP | 0.125 |
| RRIRVRPPRLPRPRPRPWVDPRP | 0.0379 |
| RRIRWRPPRLPRPRPRPSFPPRP | -0.0295 |
| RRIRRRPPRLPRPRPRPNKSPRP | -0.0615 |
| RRIRNRPPRLPRPRPRPDGGPRP | -0.323 |
| RRIRNRPPRLPRPRPRPFTEPRP | -0.236 |
| RRIRKRPPRLPRPRPRPEFEPRP | 1.34 |
| RRIRNRPPRLPRPRPRPFYRPRP | -0.131 |
| RRIRGRPPRLPRPRPRPDQDPRP | 1.06 |
| RRIRSRPPRLPRPRPRPGWNPRP | 0.0897 |
| RRIRSRPPRLPRPRPRPDADPRP | -0.0578 |
| RRIRFRPPRLPRPRPRPFEMPRP | -0.0734 |
| RRIRTRPPRLPRPRPRPSKIPRP | -0.24 |
| RRIRHRPPRLPRPRPRPHPSPRP | 0.0305 |
| RRIRVRPPRLPRPRPRPKYEPRP | 0.0383 |
| RRIRYRPPRLPRPRPRPWIFPRP | -0.505 |
| RRIRIRPPRLPRPRPRPHGCPRP | -0.282 |

| Sequence | shrunken log2 fold change |
| --- | --- |
| RRIRGRPPRLPRPRPRPKCRPRP | 0.299 |
| RRIRARPPRLPRPRPRPINNPRP | -0.441 |
| RRIRDRPPRLPRPRPRPIAVPRP | -0.00168 |
| RRIRTRPPRLPRPRPRPDHTPRP | -0.145 |
| RRIRCRPPRLPRPRPRPLYSPRP | -0.672 |
| RRIRFRPPRLPRPRPRPQNSPRP | -0.568 |
| RRIRMRPPRLPRPRPRPLHHPRP | -0.0632 |
| RRIRSRPPRLPRPRPRPYDKPRP | 0.0507 |
| RRIRARPPRLPRPRPRPPHFPRP | 1.41 |
| RRIRIRPPRLPRPRPRPIHHPRP | -0.65 |
| RRIRDRPPRLPRPRPRPKLEPRP | 0.434 |
| RRIRGRPPRLPRPRPRPEKFPRP | 0.716 |
| RRIRWRPPRLPRPRPRPWIYPRP | 0.0862 |
| RRIRVRPPRLPRPRPRPSFTPRP | -0.301 |
| RRIRTRPPRLPRPRPRPQLNPRP | -0.33 |
| RRIRERPPRLPRPRPRPLHLPRP | -0.0385 |
| RRIRGRPPRLPRPRPRPMKLPRP | 0.265 |
| RRIRMRPPRLPRPRPRPQWHPRP | 0.265 |
| RRIRYRPPRLPRPRPRPGAYPRP | -0.292 |
| RRIRSRPPRLPRPRPRPFHQPRP | -0.418 |
| RRIRIRPPRLPRPRPRPRGGPRP | 0.217 |
| RRIRIRPPRLPRPRPRPHPDPRP | -0.45 |
| RRIRGRPPRLPRPRPRPNTTPRP | 0.325 |
| RRIRHRPPRLPRPRPRPHMPPRP | -0.358 |
| RRIRDRPPRLPRPRPRPPYMPRP | -0.464 |

| Sequence | shrunken log2 fold change |
| --- | --- |
| RRIRCRPPRLPRPRPRPCGNPRP | -0.278 |
| RRIRYRPPRLPRPRPRPSETPRP | -0.523 |
| RRIRVRPPRLPRPRPRPCQMPRP | -0.486 |
| RRIRNRPPRLPRPRPRPNGRPRP | -0.00776 |
| RRIRRRPPRLPRPRPRPEFQPRP | -0.0288 |
| RRIRWRPPRLPRPRPRPNSMPRP | -0.114 |
| RRIRSRPPRLPRPRPRPQWDPRP | -0.235 |
| RRIRARPPRLPRPRPRPVSHPRP | 0.101 |
| RRIRMRPPRLPRPRPRPKYMPRP | 0.00659 |
| RRIRSRPPRLPRPRPRPVQAPRP | 0.0475 |
| RRIRHRPPRLPRPRPRPLYMPRP | -0.00599 |
| RRIRLRPPRLPRPRPRPTICPRP | -0.176 |
| RRIRLRPPRLPRPRPRPMAKPRP | 0.109 |
| RRIRWRPPRLPRPRPRPGNIPRP | -0.472 |
| RRIRGRPPRLPRPRPRPMNPPRP | 0.217 |
| RRIRGRPPRLPRPRPRPWWCPRP | 0.127 |
| RRIRARPPRLPRPRPRPIHPPRP | 0.0444 |
| RRIRYRPPRLPRPRPRPTKVPRP | -0.235 |
| RRIRFRPPRLPRPRPRPRSFPRP | -0.138 |
| RRIRMRPPRLPRPRPRPGSKPRP | 0.479 |
| RRIRLRPPRLPRPRPRPRCGPRP | 0.0294 |
| RRIRPRPPRLPRPRPRPPARPRP | 0.748 |
| RRIRNRPPRLPRPRPRPDFWPRP | 0.3 |
| RRIRLRPPRLPRPRPRPEQGPRP | 1.07 |
| RRIRVRPPRLPRPRPRPRLMPRP | -0.0256 |

| Sequence | shrunken log2 fold change |
| --- | --- |
| RRIRWRPPRLPRPRPRPVPVPRP | 0.271 |
| RRIRPRPPRLPRPRPRPVTYPRP | -0.0866 |
| RRIRSRPPRLPRPRPRPMLYPRP | 0.0575 |
| RRIRVRPPRLPRPRPRPTSLPRP | -0.262 |
| RRIRVRPPRLPRPRPRPWQSPRP | 0.0169 |
| RRIRMRPPRLPRPRPRPDKPPRP | -0.00474 |
| RRIRGRPPRLPRPRPRPIQSPRP | -0.0426 |
| RRIRKRPPRLPRPRPRPFSAPRP | -0.12 |
| RRIRIRPPRLPRPRPRPIPWPRP | -0.533 |
| RRIRARPPRLPRPRPRPWDLPRP | 0.612 |
| RRIRDRPPRLPRPRPRPMITPRP | -0.115 |
| RRIRERPPRLPRPRPRPVIWPRP | 0.254 |
| RRIRMRPPRLPRPRPRPFKMPRP | 0.0516 |
| RRIRFRPPRLPRPRPRPSWYPRP | -0.401 |
| RRIRNRPPRLPRPRPRPEDTPRP | -0.0307 |
| RRIRIRPPRLPRPRPRPNTFPRP | -0.926 |
| RRIRIRPPRLPRPRPRPVGGPRP | 0.0792 |
| RRIRKRPPRLPRPRPRPNAIPRP | 0.0998 |
| RRIRFRPPRLPRPRPRPDTKPRP | -0.123 |
| RRIRCRPPRLPRPRPRPHMEPRP | -0.194 |
| RRIRARPPRLPRPRPRPARWPRP | 0.95 |
| RRIRFRPPRLPRPRPRPWEPPRP | -0.373 |
| RRIRERPPRLPRPRPRPRFMPRP | -0.0944 |
| RRIRMRPPRLPRPRPRPANQPRP | 0.191 |
| RRIRQRPPRLPRPRPRPNLGPRP | 0.0673 |
